{"source": "the supplement of paper PMC12764529", "note": "± gives the half width of the 95% confidence interval.", "data": [{"assay": "folding stability dG unfold from trypsin proteolysis; higher = more stable", "in_short": "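Unfolding free energy was derived, per protease or combined, by relating Bayesian-fitted K50 values from sequencing counts to a sequence-predicted unfolded-state K50 and a shared folded-state K50. The underlying digests exposed cysteine-free mini-proteins under 80 residues, in a PA-tagged cDNA display construct, to trypsin and chymotrypsin at 11 threefold-diluted concentrations and to a no-protease condition. A filter kept only designs with AlphaFold2 dimer inter-PAE above 15.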", "units": {"folding stability dG unfold": "kcal/mol"}, "values": [{"sequence": "SAGGSALPIETPSDGVVPYTDPVTGKTYTVTFRRDEGKTSFRVEEPESSATREVTEPVSVTEAVLTSAGGSA [r15_234_JUSTAS]", "folding stability dG unfold": "-0.219 ± 0.12"}, {"sequence": "SAGGSAGGSAGGSMTIIVKTEEEAKQLAERLKKELEELGLLENLKIEIKVIPEEDLPPESAGGSAGGSAGGS [r4_472_TrROS_Hall]", "folding stability dG unfold": "1.29 ± 0.079"}, {"sequence": "SAGGSASTPDGKTKTYTNTNPGATEEEVKPIAEEIAKEIAEKLGLDLSEIGISVSYDPNTGTISPLIGSAGG [r13_913_JUSTAS]", "folding stability dG unfold": "-0.00514 ± 0.061"}, {"sequence": "SAGGSAGPTTTPTTYARITATLRKGGETITVELEVPTSVVEEAVEALAKELGVEIEKVEVTLTEERSAGGSA [r15_535_JUSTAS]", "folding stability dG unfold": "2.08 ± 0.027"}, {"sequence": "SAGGPPGDPILLRISYTIRPNGKERTMDHEIPFKNPNQPITLEQIRKELRDALPPGYKITDVEIDVLSAGGS [r16_407_TrROS]", "folding stability dG unfold": "0.364 ± 0.069"}, {"sequence": "SMTLTIEVDPNDPAKVKALIDSTPPDTTVTLVFPQEDGSKPVKTITVKPPLEKPISPENMTPKNVAARKKSA [r9_1103_JUSTAS]", "folding stability dG unfold": "-0.782 ± 0.69"}, {"sequence": "GFDEAELKKLLEEKAAELEKKGYKVLKTSIEPVPDGTYGGKIGNKTITHPTPNGLTYSVSVYYEKVSPKKKS [r1_31_JUSTAS]", "folding stability dG unfold": "0.232 ± 0.13"}, {"sequence": "SAGGSAGTITIMFPIPPGKEVKMKFLFYIPDGYIFNVDITQTGPGYITITIPIYRLPENAKDPDLISAGGSA [r15_909_TrROS]", "folding stability dG unfold": "3.2 ± 0.3"}, {"sequence": "SAGSMVEERVRELLRELDPERPWEIERLPDGTIVARDPETGRWYIFKVEPDGTVTLERVLSLEEYERLSSAG [r5_852_JUSTAS]", "folding stability dG unfold": "3.37 ± 0.075"}, {"sequence": "SAGGSAGGSAGGSSTILIPSSTSEEYAESLAKELKKKGNVKTSFDPSTGVLVLTLPGGSSSAGGSAGGSAGG [r7_219_JUSTAS]", "folding stability dG unfold": "-0.962 ± 0.59"}, {"sequence": "SAGGSAGGSAGGKPKKVVIYIELTPEQEEAIKKGKSLEEVVEELIKEAEKKGLEVEIVGSAGGSAGGSAGGS [r10_890_TrROS_Hall]", "folding stability dG unfold": "1.2 ± 0.029"}, {"sequence": "SAGGMTLEITITFPGPEMLEEAKKIIDELGIELVNPTPNSLTVKAKGPEEVAKIKEEAKKLGFTVTGSAGGS [r16_88_JUSTAS]", "folding stability dG unfold": "2.92 ± 0.21"}, {"sequence": "SAGGSAGGSANFKILAVEVQPAGNGIMVRAIIEFPDGWIIKFSFWFRNDGIKINIEIVPLDDSAGGSAGGSA [r18_79_TrROS]", "folding stability dG unfold": "4.7 ± 0.15"}, {"sequence": "SAGGSAGGSAGGMPVTFTGENQPVEVLSVDPERPVVVVYYPPTGTLLVALPPTGKVFPVSAGGSAGGSAGGS [r10_440_TrMRF]", "folding stability dG unfold": "-0.867 ± 0.54"}, {"sequence": "SAGFVPGKLKAVDPNGNEIDVIEIEELPNGKVIAKGKNKTNGFPYIATYDPVSGKVYIILPNGKVIEIGSAG [r5_809_TrMRF]", "folding stability dG unfold": "0.867 ± 0.074"}, {"sequence": "SAGGMLKFTDPKTGNEYTVTEYDPNTGVYLVTTTYPDGTTTTREFPGSLEDIVKHLEEEGYPTTVVGSAGGS [r16_748_JUSTAS]", "folding stability dG unfold": "2.83 ± 0.12"}, {"sequence": "SAGGSAMAIVEYDPDNRVRAIVYFPGEKRVALVEVDDDTATVTAVYDLSDDGVATYLDEATFEIGGSAGGSA [r2_60_TrMRF]", "folding stability dG unfold": "0.896 ± 0.048"}, {"sequence": "SAGGSAGGSAMETYEIEVNGKLITITRSEDGTYKITDKDTGKTITIPAEDLKKLKPGDKLLSAGGSAGGSAG [r3_256_TrROS_Hall]", "folding stability dG unfold": "1.79 ± 0.078"}, {"sequence": "SAGTTVTLTDPVTGNVTTITKDPTDPNLWTVTLPDGSSVTAKRSEIAKKLGLSPEKLLSDYPVPSVSLTSAG [r5_156_JUSTAS]", "folding stability dG unfold": "1.94 ± 0.031"}, {"sequence": "SAGGGPMPVEKEVEITLEVDPSDPASVRARLEALAASRGVEEITEITEETLPDGSRRVTAKVKWLLPVSAGG [r13_222_JUSTAS]", "folding stability dG unfold": "1.15 ± 0.067"}, {"sequence": "SAGGSAGGSAGGDKNDLSPGATISTYTNPGSFTVTLPTGETVTLPKTVTTTVTFFDSTNSAGGSAGGSAGGS [r10_643_JUSTAS]", "folding stability dG unfold": "0.254 ± 0.072"}, {"sequence": "SAGGSALPPDAPFTVEREVPFTLPDGALVTLYYNPETGTVLVRFYPPDGGEVRVEAKAEEALALLSSAGGSA [r15_2_TrMRF]", "folding stability dG unfold": "1.17 ± 0.019"}, {"sequence": "SAGGSAGGSKWIKIMYMIPPGDPEEIIEKLLPPGYKIEEVEVQRMPGYFMVDITIRDEDPDAISAGGSAGGS [r12_445_TrROS]", "folding stability dG unfold": "2.46 ± 0.11"}, {"sequence": "SAGGSAGGSAGVKEGEEIEITLENGKTFTAKIEYDKETGYYKITIKDKKTNKEYEFVFKVSAGGSAGGSAGG [r11_960_TrROS_Hall]", "folding stability dG unfold": "2.62 ± 0.3"}, {"sequence": "SALGEEEVLRALKAAAAPLPKVEPVLRKVTVLVPETGEPFEVEVLAYRLENGEIFPVPAEATEALAEALASA [r9_1056_TrMRF]", "folding stability dG unfold": "-0.549 ± 0.36"}, {"sequence": "MLTKVSTLTREDPSTGTTTTITVYKPPDGTLIVKVTTTTYSTTPDGTVTTTTSTTTVTLPPSVDVEKVFSSS [r1_243_JUSTAS]", "folding stability dG unfold": "1.76 ± 0.068"}, {"sequence": "SAGKKLIEAAKNNKKAVIPVKYKKYKITEKYKTKDGGTKYKAKLIEEKTYNVKLIKVDPKTGKIIIDPKSAG [r5_5_TrMRF]", "folding stability dG unfold": "1.07 ± 0.13"}, {"sequence": "SAGGMPKVPVTYTVTFTLKPDGSTLTVTETFPVPEPGKPVTKEEIKQRLLDKLPPSYTITSITITRASAGGS [r16_407_JUSTAS]", "folding stability dG unfold": "1.86 ± 0.03"}, {"sequence": "SAGGSAGGEPVKIEWEPIGRDPNGAFKFRLIIRDPDGTVQRTEIWINPNGGMQVETETIPPEDNSAGGSAGG [r6_263_TrROS]", "folding stability dG unfold": "1.92 ± 0.065"}, {"sequence": "SAGSIPLDIAKSLGGKTEVSSSPVPLGGGMTATLTTVTATLPDKIVTITITTLADPTVTEVTITTEPIKSAG [r5_323_JUSTAS]", "folding stability dG unfold": "1.04 ± 0.068"}, {"sequence": "SAGGSAGGSAGGEPEVEITIEVEERDGELVVRVTARFKDTDETITVEMTLEEVEALLKASAGGSAGGSAGGS [r10_1187_TrROS_Hall]", "folding stability dG unfold": "2.54 ± 0.061"}]}]}
